# The supplement of paper PMC7125110
# ± gives the standard error. Fewer inactive variants are shown than the library holds.
# B1: glmS ribozyme (parent)
# chain: AUAAAAGCGCCAGAACUACAGAAAUGUAGUUGACGAGGAGGAGGUUUAUCGAAUUUUCGGCGGAUGCCUCCAAA
# Variants of: B1
# Assay: self-cleavage kobs at 2500 uM GlcN6P; higher = faster cleavage; RNA array
# Conditions: with glucosamine-6-phosphate
# Outline: (§1)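 Tiles of sequenced MiSeq chips were imaged over ~14 h at 37 °C. On them, barcoded ribozyme variants had been transcribed in situ by E. coli RNA polymerase and were tracked via a hybridised Cy3 probe while glucosamine-6-phosphate (40 μM to 10 mM) in HEPES/KCl/Mg(OAc)2 buffer flowed in. Per-tile medians, normalised to baseline and to non-cleaving reference variants, were fit to one- or two-exponential decays for kobs, and weighted Michaelis–Menten fits gave kcat and KM.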
row,Variant,self-cleavage kobs at 2500 uM GlcN6P [s⁻¹]
1,AUAAAAGCGCCAGAACUACAGAAAUGUAGUUGACGAGGAGGAGGUGUUUCGAAUUUUCGGAGGAUGCCUCCAAA,< 1e-05
2,AUAAAAGCGCCAGAACUACAGAAAUGUAGUUGACGAGGAGGAGGUUUAUCAACUUUUCGGCCGAUGCCUCCAAA,< 1e-05
3,AUAAAAGCGCCAGAACUACAGAAAUGUAGUUGACGAGGAGGAUGUUCAUCGAAUUUUCGGCGAAUGCCUCCAAA,< 1e-05
4,AUAAAAGCGCCAGAACUACAGAAAUGUAGUUGACGAGGAGGAGGUUUAUUGAAUUUUCGGCGGAUGCCUUAAAA,0.000152 ± 4e-05
5,AUAAAAGCGCCAGAACUACAGAAAUGUAGUUGACGAGGAGGAAGUUGAUCGAAUUUUCGGGGGAUGCCUCCAAA,< 1e-05
6,AUAAAAGCGCCAGAACUACAGAAAUGUAGUUGACGAGGAGGACGUUUAUCGAUUUUUGGGCGGGUGCCUCCAAA,< 1e-05
7,AUAAAAGCGCCAGAACUACAGAAAUGUAGUUGACGAGGAGGAGGUUGAUCGAAUUUUCGGCGGAUGCAUCGAAA,0.00013 ± 3.6e-05
8,AUAAAAGCGCCAGAACUACAGAAAUGUAGUUGACGAGGAGGAGGUUUAUUGAAUUUUCGGCGGUUGCCUCUAAA,< 1e-05
9,AUAAAAGCGCCAGAACUACAGAAAUGUAGUUGACGAGGAGGAGGUGUAGUGGAUUUUCGGCGGAUGCCUCCAAA,< 1e-05
10,AUAAAAGCGCCAGAACUACAGAAAUGUAGUUGACGAGGAGGUGGUUUAUCGAAUUAUCGGCGGAUGCCGCCAAA,0.00299 ± 0.00059
11,AUAAAAGCGCCAGAACUACAGAAAUGUAGUUGACGAGGAGGAGGUUUCUGGAAUUUUCGGCGGCUGCCUCCAAA,< 1e-05
12,AUAAAAGCGCCAGAACUACAGAAAUGUAGUUGACGAGGAGGAGGGUUAUCGUAUUUUCGGCGCAUGCCUCCAAA,< 1e-05
13,AUAAAAGCGCCAGAACUACAGAAAUGUAGUUGACGAGGAGGAUGUUUAGCGAAUUUUCGGGGGAUGCCUCCAAA,< 1e-05
14,AUAAAAGCGCCAGAACUACAGAAAUGUAGUUGACGAGGAGGAGGUUGAUAGAAUUUUCGGCGGCUGCCUCCAAA,0.000126 ± 3.2e-05
15,AUAAAAGCGCCAGAACUACAGAAAUGUAGUUGACGAGGAGGAGGGUUUUCGAAUCUUCGGCGGAUGCCUCCAAA,8.04e-05 ± 2.8e-05
16,AUAAAAGCGCCAGAACUACAGAAAUGUAGUUGACGAGGAGGAGAUUUAUCGUAUUUUCGUCGGAUGCCUCCAAA,< 1e-05
17,AUAAAAGCGCCAGAACUACAGAAAUGUAGUUGACGAGGAGGAGGUUAAUCGAAUUUUCGGCGGAUGCGGCCAAA,7.59e-05 ± 3.7e-05
18,AUAAAAGCGCCAGAACUACAGAAAUGUAGUUGACGAGGAGGAGGUUUAUGGAAUUUUAGGCGGAUACCUCCAAA,0.000121 ± 4.3e-05

row,Variant,self-cleavage kobs at 2500 uM GlcN6P [s⁻¹]
1,AUAAAAGCGCCAGAACUACAGAAAUGUAGUUGACGAGGAGGAGGUUUUUAGAAUUUUCGGCGGAGGCCUCCAAA,< 1e-05
2,AUAAAAGCGCCAGAACUACAGAAAUGUAGUUGACGAGGAGGAGAUUUAACGAAUUUUCGGCUGAUGCCUCCAAA,< 1e-05
3,AUAAAAGCGCCAGAACUACAGAAAUGUAGUUGACGAGGAGGUGGUUUGUCGAAUUUUCGGAGGAUGCCUCCAAA,< 1e-05
4,AUAAAAGCGCCAGAACUACAGAAAUGUAGUUGACGAGGAGGAGGUUUCUCGGAUUUUUGGCGGAUGCCUCCAAA,< 1e-05
5,AUAAAAGCGCCAGAACUACAGAAAUGUAGUUGACGAGGAGGAGGUGUAUCGAAUCUUCGGCGGAUACCUCCAAA,0.00233 ± 0.00084
6,AUAAAAGCGCCAGAACUACAGAAAUGUAGUUGACGAGGAGGUGGUUUAUCGAAUAUUCGUCGCAUGCCUCCAAA,< 1e-05
7,AUAAAAGCGCCAGAACUACAGAAAUGUAGUUGACGAGGAGGGGGUUUAUCCAAUUUUCGCCGGAUGCGUCCAAA,< 1e-05
8,AUAAAAGCGCCAGAACUACAGAAAUGUAGUUGACGAGGAGGGGGUUUAUCGAAUUUUCGGCGGACGCCUCCAAA,0.000535 ± 0.00016
9,AUAAAAGCGCCAGAACUACAGAAAUGUAGUUGACGAGGAGGAGGUUAAUCGAAUCUUCGGCGGAUGCCCCCAAA,0.000127 ± 4.1e-05
10,AUAAAAGCGCCAGAACUACAGAAAUGUAGUUGACGAGGAGGAGGUCUAUCGAAUUUUCGUCGGAUGCCUUCAAA,< 1e-05
11,AUAAAAGCGCCAGAACUACAGAAAUGUAGUUGACGAGGAGGAGAUUUACCGAAUUUUCGGCUGAUGCCUCCAAA,< 1e-05
12,AUAAAAGCGCCAGAACUACAGAAAUGUAGUUGACGAGGAGGAGGCUUUUCGAAUUUUCGGCGGAAGCCUCCAAA,< 1e-05
13,AUAAAAGCGCCAGAACUACAGAAAUGUAGUUGACGAGGAGGAGGUGUAUGGAAUUUUCGGCGGAUGCGUCCAAA,4.12e-05 ± 2e-05
14,AUAAAAGCGCCAGAACUACAGAAAUGUAGUUGACGAGGAGGAUGUUUCUCGAAUUUUCGGGGGAUGCCUCCAAA,< 1e-05
15,AUAAAAGCGCCAGAACUACAGAAAUGUAGUUGACGAGGAGGAGGCUUAUCGAAUUUUCGGCGGAUUCCUGCAAA,7.12e-05 ± 3.1e-05
16,AUAAAAGCGCCAGAACUACAGAAAUGUAGUUGACGAGGAGGAGGUUCAUCGAAUUUUAGGCGGAUGCUUCCAAA,3.93e-05 ± 1.6e-05
17,AUAAAAGCGCCAGAACUACAGAAAUGUAGUUGACGAGGAGGAGUGUUAUCGAAUUUUCGGCGGAUGCCUUCAAA,0.000791 ± 0.00023

# Variants of: B1
# Assay: self-cleavage kobs at 10000 uM GlcN6P; higher = faster cleavage; RNA array
# Conditions: with glucosamine-6-phosphate
# Outline: as §1
row,Variant,self-cleavage kobs at 10000 uM GlcN6P [s⁻¹]
1,AUAAAAGCGCCAGAACUACAGAAAUGUAGUUGACGAGGAGGAGGUGUAUCGAAUCUUCGGCGGAUACCUCCAAA,0.00269 ± 0.00067
2,AUAAAAGCGCCAGAACUACAGAAAUGUAGUUGACGAGGAGGAGGCUUUUCGAAUUUUCGGCGGAAGCCUCCAAA,< 1e-05
